Reference: patent US20160068860A1, “TRANSGENIC PLANTS” (CONSEJO SUPERIOR DE INVESTIGACIONES CIENTIFICAS (CSIC), priority 2013, published 2016)

Columns and labels:
[1] = target: T1, PP2CA (clade A protein phosphatase 2C, At3g11410) (Arabidopsis thaliana, UniProt P49598 1-399, limits assumed); experiment: yeast two-hybrid growth assay, absence of ABA; H82R was found combined with V97A
T1 construct: BiFC: PP2CA-YFPN (pSPYNE-35S); also called AtPP2CA
T1 sequence (looked up): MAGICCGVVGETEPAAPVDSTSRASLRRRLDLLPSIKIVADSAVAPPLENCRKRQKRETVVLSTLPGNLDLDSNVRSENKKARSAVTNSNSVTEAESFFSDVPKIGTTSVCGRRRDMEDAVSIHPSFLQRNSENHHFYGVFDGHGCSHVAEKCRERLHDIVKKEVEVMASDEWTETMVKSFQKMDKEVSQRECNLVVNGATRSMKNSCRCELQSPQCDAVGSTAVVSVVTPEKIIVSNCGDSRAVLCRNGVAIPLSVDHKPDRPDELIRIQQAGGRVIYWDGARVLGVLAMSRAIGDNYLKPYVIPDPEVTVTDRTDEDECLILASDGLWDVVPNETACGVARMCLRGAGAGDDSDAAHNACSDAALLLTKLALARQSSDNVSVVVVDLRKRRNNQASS

HAB1 = experiment: BiFC assay with HAB1 in N. benthamiana leaves; assay type: cell-based; settings: no exogenous ABA
Protocol: (§1) Experiments were performed basically as described by Voinnet et al., (2003). The different binary vectors described above where introduced into Agrobacterium tumefaciens C58C1 (pGV2260) (Deblaere et al., 1985) by electroporation and transformed cells were selected in LB plates supplemented with kanamycin (50 μg/ml). Then, they were grown in liquid LB medium to late exponential phase and cells were harvested by centrifugation and resuspended in 10 mM morpholinoethanesulphonic (MES) acid-KOH pH 5.6 containing 10 mM MgCl2 and […] acetosyringone to an OD600 nm of 1. These cells were mixed with an equal volume of Agrobacterium C58C1 (pCH32 35S:p19) expressing the silencing suppressor p19 of tomato bushy stunt virus (Voinnet et al., 2003) so that the final density of Agrobacterium solution was about 1. Bacteria were incubated for 3 h at room temperature and then injected into young fully expanded leaves of 4-week-old N. benthamiana plants. Leaves were examined after 3-4 days under a Leica TCS-SL confocal microscope and laser scanning confocal imaging system. Quantification of fluorescent protein signal was done as described (Gampala et al., 2007) using the National Institutes of Health (NIH) Image software ImageJ v1.37. […]

PP2CA = PP2CA (Arabidopsis thaliana, UniProt O80920+P49598, A194T); experiment: BiFC assay with PP2CA in N. benthamiana leaves; assay type: cell-based; set-up: expressed in transfected cells; host or cells: N. benthamiana leaf epidermal cells (Agroinfiltration); settings: no exogenous ABA; compared to PYL4
Protocol: as §1

Molecule	binding result [1]	interaction with HAB1 (BiFC), PYL4 versus PYL4A194T (HAB1)	relative fluorescence emission of interaction with PP2CA (PP2CA)
PYL4H82R V97A (AtPYL H82 and V97A) (receptor, also called PYL4H82R (found combined with V97A)) MLAVHRPSSAVSDGDSVQIPMMIASFQKRFPSLSRDSTAARFHTHEVGPNQCCSAVIQEISAPISTVWSVVRRFDNPQAYKRFLKSCSVIGGDGDNAGSLRQVHVVSGLPAASSTERLDILDDERHVISFSVVGGDHRLSNYRSVTTLHPSPISGTVVVESYVVDVPPGNTKEETCDFVDVIVRCNLQSLAKIAENTAAESKKKMSL	binds		
PYL4A194T: AtPYL4 ABA receptor mutant polypeptide with A194T substitution (SEQ ID NO. 60; nucleic acid SEQ ID NO: 55); also over-expressed in plants (protein, listed as Arabidopsis thaliana) MLAVHRPSSAVSDGDSVQIPMMIASFQKRFPSLSRDSTAARFHTHEVGPNQCCSAVIQEISAPISTVWSVVRRFDNPQAYKHFLKSCSVIGGDGDNVGSLRQVHVVSGLPAASSTERLDILDDERHVISFSVVGGDHRLSNYRSVTTLHPSPISGTVVVESYVVDVPPGNTKEETCDFVDVIVRCNLQSLAKITENTAAESKKKMSL		did not differ significantly	higher
